Results reported in PMC4498601, “Two high-mobility group box domains act together to underwind and kink DNA”.

Target: T1, HMGB1 box A (Rattus norvegicus (rat), UniProt P63159 8-81)
T1 sequence: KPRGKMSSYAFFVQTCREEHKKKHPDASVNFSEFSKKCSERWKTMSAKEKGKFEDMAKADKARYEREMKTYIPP
Test: X-ray crystallography; 2.0 A; 40 mM MgCl2, 50 mM sodium cacodylate pH 6.0, MPD; two box A per kinked duplex, one further duplex almost unbound; EMSA: 0.33x TBE (30 mM Tris-borate, 0.66 mM EDTA), 3% glycerol, 30 min incubation (temperature not stated), 6% native PAGE at 4 C; crystal complex: 1.6 mM protein, 0.8 mM DNA, about 1 h at 4 C
Settings: protein: recombinant; tags: GST tag removed by thrombin; chain copies: 2; blunt; self-complementary decamer, 2 copies of the strand

B1: d(ATATCGATAT)2 (dsDNA)
DNA 1: ATATCGATAT
DNA 2: ATATCGATAT
- binding result: binds
